Test results published in article PMC9734150, “Allosteric rescue of catalytically impaired ATP phosphoribosyltransferase variants links protein dynamics to active-site electrostatic preorganisation” (Nature Communications, 2022).

B1: R56A-PaHisGS (enzyme, Psychrobacter arcticus)
chain: MTEVTNSLPTSGLLNEANDEFLGLTLALSKGRILEETMPLLRAAGVELLEDPEASAKLIFPTSNPNVRVLILRASDVPTYVEHGAADFGVAGKDVLLEHGANHVYELLDLKIAQCKLMTAGVKDAPLPNRRLRIATKYVNVARAYFASQGQQVDVIKLYGSMELAPLVGLGDLIVDVVDTGNTLRANGLEARDHICDVSSRLIVNQVSYKRKFALLEPILDSFKNSINSTS
notes: HisGS, Psychrobacter arcticus, with R56A; made from the WT-PaHisGS expression vector
B2: R56A/K57A-PaHisGS (enzyme, Psychrobacter arcticus)
chain: MTEVTNSLPTSGLLNEANDEFLGLTLALSKGRILEETMPLLRAAGVELLEDPEASAALIFPTSNPNVRVLILRASDVPTYVEHGAADFGVAGKDVLLEHGANHVYELLDLKIAQCKLMTAGVKDAPLPNRRLRIATKYVNVARAYFASQGQQVDVIKLYGSMELAPLVGLGDLIVDVVDTGNTLRANGLEARDHICDVSSRLIVNQVSYKRKFALLEPILDSFKNSINSTS
notes: HisGS, Psychrobacter arcticus, with R56A and K57A; made from the WT-PaHisGS expression vector
B3: WT-PaHisGS (Psychrobacter arcticus ATP phosphoribosyltransferase catalytic subunit HisGS) (enzyme)
chain: MTEVTNSLPTSGLLNEANDEFLGLTLALSKGRILEETMPLLRAAGVELLEDPEASRKLIFPTSNPNVRVLILRASDVPTYVEHGAADFGVAGKDVLLEHGANHVYELLDLKIAQCKLMTAGVKDAPLPNRRLRIATKYVNVARAYFASQGQQVDVIKLYGSMELAPLVGLGDLIVDVVDTGNTLRANGLEARDHICDVSSRLIVNQVSYKRKFALLEPILDSFKNSINSTS
notes: HisGS, catalytic subunit of short-form ATP phosphoribosyltransferase, Psychrobacter arcticus
B4: R32A-PaHisGS (enzyme, Psychrobacter arcticus)
chain: MTEVTNSLPTSGLLNEANDEFLGLTLALSKGAILEETMPLLRAAGVELLEDPEASRKLIFPTSNPNVRVLILRASDVPTYVEHGAADFGVAGKDVLLEHGANHVYELLDLKIAQCKLMTAGVKDAPLPNRRLRIATKYVNVARAYFASQGQQVDVIKLYGSMELAPLVGLGDLIVDVVDTGNTLRANGLEARDHICDVSSRLIVNQVSYKRKFALLEPILDSFKNSINSTS
notes: HisGS, Psychrobacter arcticus, with R32A; made from the WT-PaHisGS expression vector
B5: C115S-PaHisGS (enzyme, Psychrobacter arcticus)
chain: MTEVTNSLPTSGLLNEANDEFLGLTLALSKGRILEETMPLLRAAGVELLEDPEASRKLIFPTSNPNVRVLILRASDVPTYVEHGAADFGVAGKDVLLEHGANHVYELLDLKIAQSKLMTAGVKDAPLPNRRLRIATKYVNVARAYFASQGQQVDVIKLYGSMELAPLVGLGDLIVDVVDTGNTLRANGLEARDHICDVSSRLIVNQVSYKRKFALLEPILDSFKNSINSTS
notes: HisGS, Psychrobacter arcticus, with C115S; made from the WT-PaHisGS expression vector
B6: PaHisZ (Psychrobacter arcticus ATP phosphoribosyltransferase regulatory protein HisZ) (natural protein)
chain: MLPDGVADVLFEDAHKQEVLRHQLTQQLITHGYQLVSPPMIEFTESLLSGASEDLKRQTFKIIDQLTGRLMGIRADITPQILRIDAHHGGDGIARYCYAGDVIHTLPSGLFGSRTPLQLGAEIFGCESIAADIELIDVLFSMINSLDMSAVLHVDLGHVTIFKRLAELAALSASDTEQLMQLYANKNLPELKQVCQVLPMGSDFYTLARFGHDIANLLGRLSENAQQDTKIVTAIDELQRLKAHLQVQWQCAVSIDVTELSGYHYHTGIVFNGYINSETQPLVRGGRFDGMKSNQLATNQPRQATGFSMDVSRLLAHTQLDAPFIVLIDYDAFNNLDSAQRQLLLQQVASLRQQGYRVTMPLTAEDMPVGLTHRLSLADNQWRLHAV
notes: HisZ, regulatory subunit of short-form ATP phosphoribosyltransferase, Psychrobacter arcticus; also called WT-PaHisZ

Columns and labels:
[1] = biological target: WT-PaHisGS (Psychrobacter arcticus ATP phosphoribosyltransferase catalytic subunit HisGS) (Psychrobacter arcticus) (UniProt Q4FQF7); assay: enzyme activity titration (initial rate against HisZ concentration); apparent KD; fixed PaHisGS variant, HisZ (PaHisZ, His-tagged PaHisZ or AbHisZ) varied; initial velocities at 20 °C in 100 mM tricine, 100 mM KCl, 15 mM MgCl2, 4 mM DTT, pH 8.5, 5.6 mM ATP, 2 mM PRPP; fit to Eq. (3), or to Eq. (5) for R56A-PaHisGS with AbHisZ
[2] = biological target: R56A-PaHisGS (Psychrobacter arcticus) (UniProt Q4FQF7)
[3] = biological target: WT-PaHisGS (Psychrobacter arcticus ATP phosphoribosyltransferase catalytic subunit HisGS) (Psychrobacter arcticus) (UniProt Q4FQF7)
[4] = biological target: the molecule itself; assay: SEC; Superdex 200 10/300 GL, 4 °C, 20 mM HEPES pH 8.0; 1 mg/mL protein pre-incubated with 2 mM DTT
[5] = biological target: B6; assay: enzyme activity titration (initial rate against HisZ concentration); apparent KD; fixed PaHisGS variant, HisZ (PaHisZ, His-tagged PaHisZ or AbHisZ) varied; initial velocities at 20 °C in 100 mM tricine, 100 mM KCl, 15 mM MgCl2, 4 mM DTT, pH 8.5, 5.6 mM ATP, 2 mM PRPP; fit to Eq. (3), or to Eq. (5) for R56A-PaHisGS with AbHisZ; conditions: both partners purified
[6] = biological target: AbHisZ (Acinetobacter baumannii HisZ); assay: enzyme activity titration (initial rate against HisZ concentration); apparent KD; fixed PaHisGS variant, HisZ (PaHisZ, His-tagged PaHisZ or AbHisZ) varied; initial velocities at 20 °C in 100 mM tricine, 100 mM KCl, 15 mM MgCl2, 4 mM DTT, pH 8.5, 5.6 mM ATP, 2 mM PRPP; fit to Eq. (3), or to …; conditions: other: enzyme activity titration (initial rate against HisZ concentration)
R32A-PaHisGS [7] = biological target: B4; assay: cell-based or functional assay
R56A-PaHisGS [8] = biological target: B1; assay: cell-based or functional assay
C115S-PaHisGS = biological target: B5; assay: cell-based or functional assay
R56A/K57A-PaHisGS = biological target: B2; assay: cell-based or functional assay
[9] = biological target: B3; assay: cell-based or functional assay
R32A-PaHisGS [10] = biological target: T1, R32A-PaHisGS (Psychrobacter arcticus, UniProt Q4FQF7 1-231, R32A)
T1 sequence: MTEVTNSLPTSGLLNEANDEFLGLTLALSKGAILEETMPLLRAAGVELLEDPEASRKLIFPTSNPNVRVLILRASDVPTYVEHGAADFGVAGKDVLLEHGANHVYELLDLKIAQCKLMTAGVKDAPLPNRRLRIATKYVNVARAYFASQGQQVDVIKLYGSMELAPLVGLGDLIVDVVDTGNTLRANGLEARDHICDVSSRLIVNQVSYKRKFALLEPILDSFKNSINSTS

[11] = biological target: T2, WT-PaHisGS (Psychrobacter arcticus ATP phosphoribosyltransferase catalytic subunit HisGS) (Psychrobacter arcticus, UniProt Q4FQF7 1-231)
T2 chain: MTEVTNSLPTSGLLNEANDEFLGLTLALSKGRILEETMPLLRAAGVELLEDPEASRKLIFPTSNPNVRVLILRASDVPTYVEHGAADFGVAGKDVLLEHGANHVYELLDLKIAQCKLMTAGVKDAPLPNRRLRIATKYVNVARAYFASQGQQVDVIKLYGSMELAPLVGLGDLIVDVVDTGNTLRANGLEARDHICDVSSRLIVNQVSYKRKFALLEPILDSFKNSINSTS

R56A-PaHisGS [12] = biological target: T3, R56A-PaHisGS (Psychrobacter arcticus, UniProt Q4FQF7 1-231, R56A)
T3 sequence: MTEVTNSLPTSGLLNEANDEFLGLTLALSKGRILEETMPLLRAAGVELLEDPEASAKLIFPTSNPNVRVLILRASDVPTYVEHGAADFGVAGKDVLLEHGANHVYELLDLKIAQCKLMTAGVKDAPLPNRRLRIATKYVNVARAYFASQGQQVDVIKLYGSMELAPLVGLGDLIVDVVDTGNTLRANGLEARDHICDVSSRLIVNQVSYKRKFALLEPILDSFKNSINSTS

R56K-PaHisGS = biological target: T4, R56K-PaHisGS (Psychrobacter arcticus, UniProt Q4FQF7 1-231, R56K); assay: cell-based or functional assay
T4 sequence: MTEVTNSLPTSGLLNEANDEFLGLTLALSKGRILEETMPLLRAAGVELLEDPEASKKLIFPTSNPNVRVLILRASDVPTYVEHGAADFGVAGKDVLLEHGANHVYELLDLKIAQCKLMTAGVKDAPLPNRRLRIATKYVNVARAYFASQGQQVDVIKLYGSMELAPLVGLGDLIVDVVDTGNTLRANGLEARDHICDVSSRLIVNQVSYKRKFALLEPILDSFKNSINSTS

[13] = biological target: the molecule itself; assay: crystal structure; R56A-PaATPPRT (R56A-PaHisGS with PaHisZ) crystals soaked in PRPP and ATP; molecular replacement with PDB 6FU2

With “AbHisZ (Acinetobacter baumannii HisZ) (natural protein)” the Kd [1] was 9000 nM, the apparent kcat of the R56A-PaHisGS/AbHisZ hybrid complex [2] was 0.22 s⁻¹ and the apparent kcat of the WT-PaHisGS/AbHisZ hybrid complex [3] was 1.49 s⁻¹.

For B1, the “stoichiometry N” value [4] was 2, the Kd [5] was 4000 nM and the “K0.5 (concentration of AbHisZ at the inflection point, Eq. 5)” value [6] was 8.1 ± 0.4 µM.

In the case of B2, the “stoichiometry N” value [4] is reported as 2 and the Kd [5] is reported as 5000 nM.

In the case of B3, the “stoichiometry N” value [4] is reported as 2 and the Kd [5] is reported as 440 nM.

B4 was tested, and the “stoichiometry N” value [4] was 2 and the Kd [5] was 490 nM.

B5 was tested, and the “stoichiometry N” value [4] was 2 and the Kd [5] was 1700 nM.

B6 was tested, and the “Activation by PaHisZ: ratio of kcat of PaATPPRT variant to v/ET of the PaHisGS mutant alone” value (R32A-PaHisGS [7]) was 208 fold, the “Activation by PaHisZ: ratio of kcat of PaATPPRT variant to v/ET of the PaHisGS mutant alone” value (R56A-PaHisGS [8]) was 250 fold and the “Activation by PaHisZ: ratio of kcat of PaATPPRT variant to v/ET of the PaHisGS mutant alone” value (C115S-PaHisGS) was 1860 fold. For the same molecule, the “Activation by PaHisZ: ratio of kcat of PaATPPRT variant to v/ET of the PaHisGS mutant alone” value (R56A/K57A-PaHisGS) was 521 fold, the “Activation by PaHisZ: ratio of kcat of PaATPPRT to v/ET of PaHisGS alone” value [9] was 29 fold and the Kd (R32A-PaHisGS [10]) was 30 nM. For the same molecule, the Kd [11] was 60 nM, the Kd (R56A-PaHisGS [12]) was 200 nM and the “activation of the R56K-PaHisGS (6 µM) reaction rate by PaHisZ (20 µM)” value (R56K-PaHisGS) was ~11 fold. B6: binds [13].
